Experimental data published in the supplement of paper PMC9170038.

System: MS2 coat protein
Experiment: apparent KD of MS2 coat protein; designed switch direction (-1 OFF switch, 1 ON switch): -1; higher = weaker reporter binding
Summary of the method: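 Designed RNA switches were transcribed on Illumina chips by stalled E. coli RNA polymerase and titrated with SNAP-549-labelled MS2 coat protein from 0.7 or 1.5 nM, doubling to 3 µM. Step length ran from 0.8–1.5 h at the lowest concentration to 10–20 min at the highest. The apparent KD is the median over clusters for each design, from curve-fitted normalised cluster fluorescence.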

[1] = input ligand: microRNA oligo, concentration not stated
[2] = Eterna round: R95, input ligand: FMN 200 uM
[3] = Eterna round: R95, input ligand: microRNA oligo, concentration not stated
[4] = Eterna round: R95, input ligand: none

Sequence	apparent KD of MS2 coat protein (input ligand: FMN 200 uM) [nM]	apparent KD of MS2 coat protein [1] [nM]	apparent KD of MS2 coat protein (input ligand: none) [nM]	apparent KD of MS2 coat protein [2] [nM]	apparent KD of MS2 coat protein [3] [nM]	apparent KD of MS2 coat protein [4] [nM]
GCGGGCCCGGGAGGAUAUACAUGAGGAUCACCCAUGUGGGCCCGGGCCCGCGGGCCCGGGCCCGUGUAGAAGGCCCGGGCCCGC [-64.9, -63.3 kcal, A 14%] (Eterna round: R96, puzzle: Exclusion NG 2)	28	10.1	14.2	–	–	–
GCAGCAUAGUCGGAAACGACAGAACAUGAGGAUCACCCAUGUUAGGAUAUGGUCUGGAUUACAGGCCAGAAGGGACAAAGCUGC [Eli exng3 - 009] (Eterna round: R96, puzzle: Exclusion NG 3)	34.8	29.7	39.9	–	–	–
AAUAGCAAGUAAGAUCCUAACAUGAGGAUCACCCAUGUGCUCGUCUUGUAAAGUACUAUCACGAAAGUGAUAGUACA [Sensor 3, v1 - 50] (puzzle: Sensor v3, turn-off variant 1)	–	–	–	108	69.4	146
UUUACAAGCUAAUGAUCCCACAUGAGGAUCACCCAUGUUGCUGCCGGUGACGGUAGCAUAACAUUUGCUCGUCUUAU [JL TOV1 3.58] (Eterna round: R97, puzzle: Sensor, turn-off variant 1)	1180	–	1010	–	–	–
GUUUAGCAAGCGAGAUCCCACAUGAGGAUCACCCAUGUGCAUCCAGAAUUACUGGGUGCAAAAGCUCGUCUUAUAUG [mod-El /newdang-1] (Eterna round: R97, puzzle: Sensor, turn-off variant 1)	71.8	–	71.8	–	–	–
GGUCGUAGACAGGAUAUGCGGCAAAUAAAUAAAGCAGAAGGGUCUACUUGAGGAUCACCCAAGUGGGCGGUUAA [jl-ex6-4.18 ViennaUCT mod] (Eterna round: R97, puzzle: Exclusion 6)	103	–	17.7	–	–	–
GCCGUACAAGGAUAUACAUGAGGAUCACCCAUGUGUCUCCUCGAGAGCAAACGGCUCUGUAGAAGGUGUCGUAA [EX3 C.20] (Eterna round: R97, puzzle: Exclusion 3)	16.5	–	15.6	–	–	–
AGCGAUCAUGUUAGGAUAUCCAAGCAGACGCUCAAGGAGAAGGAACAUGAGGAUCACCCAUGUUUGAUCCAAAC [Usrediza] (Eterna round: R97, puzzle: Brourd's mod of Exclusion 4)	104	–	19.7	–	–	–
CUAGUCCGAGGAUAUAUAUUGUGAUACAUGAGGAUCACCCAUGUAAUAAUAUGGAAAUAAAUAGAAGGCGGACUAG [Mat - Exclusion 5 - JL mod - D53] (puzzle: Exclusion 5)	–	–	–	56.4	36.8	27
AAUCAUAGGUAAGGAUAUGAAGAUCUGGUGGUGACAUGAGGAUCACCCAUGUGAAAACGAUGAGAUCAGAAGGUACAAUAUGAA [AK ExNG2-4] (Eterna round: R96, puzzle: Exclusion NG 2)	108	18	88.3	–	–	–
GGAUAAAAUCGAGGAUAUACGCACCACUAACGAGUAGAAGGCGAACAUGAGGAUCACCCAUGUGAGUUCUCAAUAAGAAACACG [Prohibition 68 - Jieux - Exclusion NG 1] (Eterna round: R96, puzzle: Exclusion NG 1)	40.5	23.9	35.1	–	–	–
CUCAGGUGAGGAUAUGCUUAAGGAUCGGUACACCGACACCUGUAGAAGGCACAUGAGGAUCACCCAUGUUAGGC [Eternabot (L1) Solution 68] (Eterna round: R97, puzzle: Exclusion 4)	30.1	–	27.9	–	–	–
UGGGUUACAGGAUAUACAUGAGGAUCACCCAUGUCAUGUUUCGUGGCGGAUAGCUCGAGUAGAAGGGUGCAUCC [Diorus] (puzzle: Exclusion 3)	–	–	–	–	36.6	–
GAGAUGCGGAUAGGAUAUGGAAGAAAAGAAGGAUUAGAAGGGUUGGUUAGAAUACAUGAGGAUCACCCAUGUGAAUCAUGAGAA [AK ExNG1-2.3] (Eterna round: R96, puzzle: Exclusion NG 1)	99.2	81.1	128	–	–	–
UAUGUGUCAGGAUAUUAGUAGUAAAUAAAUAAAAUUAUUACUGAGAAGGGACAUGAGGAUCACCCAUGUACCUU [JR_Ex4_Sub051] (Eterna round: R97, puzzle: Exclusion 4)	22.6	–	16.2	–	–	–
UUUGUUUAUGUAGGAUAUGCCUGGCGUGCCUUUGCAGAAGGACAUGAGGAUCACCCAUGUAACAUGAGGCUCACCCAUGUCGCA [salish99_ExNG1_r04_110] (Eterna round: R96, puzzle: Exclusion NG 1)	682	453	645	–	–	–
GAUUAGCGAGGAUAUACAUGAGGAUCACCCAUGUGAUCCUAAGGCUGAUCAAGCCUAUGUAGAAGGCGCAAAUC [salish99_ex3_r5_001] (Eterna round: R97, puzzle: Exclusion 3)	35.2	–	224	–	–	–

Sequence	apparent KD of MS2 coat protein (input ligand: FMN 200 uM) [nM]	apparent KD of MS2 coat protein [1] [nM]	apparent KD of MS2 coat protein (input ligand: none) [nM]	apparent KD of MS2 coat protein [2] [nM]	apparent KD of MS2 coat protein [3] [nM]	apparent KD of MS2 coat protein [4] [nM]
AAGUCACAGGGAGGAUAUGUGAAAGGAAGUGUAACAGAAGGCCCAACGUAGGGCGAGACAUGAGGAUCACCCAUGUAUAAAAGA [PowerStrip EXNG 1.16] (Eterna round: R96, puzzle: Exclusion NG 1)	28.9	20.8	25.9	–	–	–
ACUUUUUGAGGAUAUACAUUUAUCCACAUGAGGAUCACCCAUGUACAAACAUGUAUUUGUGUAGAAGGCAGAAGAA [JR_Ex5_Sub069] (Eterna round: R97, puzzle: Exclusion 5)	54.5	–	60.7	–	–	–
CCGUUAUGAGGAUAUCGCUUGAAAGACAUGAGGAUCACCCAUGUGGGCGCGUCCUCAUGGCGAGAAGGCAUUACGA [Enmaatama] (puzzle: Exclusion 5)	–	–	–	9.07	13.1	12.6
GGGCCUCAUGUGAGGAUAUUGGAUGAGGUGCGAGACGAGAAGGCACAUGAGGAUCACCCAUGUAACUAACCAAA [Bimaen] (Eterna round: R97, puzzle: Brourd's mod of Exclusion 4)	34.8	–	85	–	–	–
GUUAAUUGUCAGAUGGGUGACAUGAGGAUCACCCAUGUCACAAGCUUUUUGCUCGUCUUAUAAUUAACCCAUCUGAC [Stov1/11-A3] (Eterna round: R97, puzzle: Sensor, turn-off variant 1)	13.6	–	13.3	–	–	–
AAUAACAGAGGAUAUACUAUUUUAUGUGUUUAUUGUUUUAAACAUGAGGAUCACCCAUGUAGAAGGCUGAUUAA [JMF 45] (puzzle: Exclusion 2)	–	–	–	–	61.9	–
AGUACUAACAGCUGACUGUUAGUACUGUAGGUUUGUGUUACAUGAGGAUCACCCAUGUCCUCAUAGGCUCGUCUUGU [Mat - Sensor v3 - Turn-off var 2 - D97] (puzzle: Sensor v3, turn-off variant 2)	–	–	–	291	100	284
UGAGUGUUAGGAUAUCGCGGUUAGGCGAGUUGCUUAAUGAUCGAGAAGGGACAUGAGGAUCACCCAUGUGGGAC [Eternabot (L1) Solution 40] (Eterna round: R97, puzzle: Exclusion 4)	127	–	112	–	–	–
AUGGUACAUGAGGAUCACCCAUGUUAGGAUAUCGCGUGUUCUAAAACUAAGAGAUACACGAGAAGGGACGACAU (puzzle: Exclusion 1)	–	–	–	–	81.2	–
GGUGGGCUAGGAUAUGCUUUGGGCGGGCAUUCCUUCGAUAAACUUGAGGAUCACCCAAGUAGAAGGAGCUUGCC [salish99_ex2_r4_024] (Eterna round: R97, puzzle: Exclusion 2)	16.2	–	12.3	–	–	–
ACAUGAGGAUCACCCAUGUAAACAUAAUGGCUCAUGUAGAGUCAGGAUAUGCGUGGCGAACAAACGCAGAAGGGACAAGACUGG [Deportation 26 - Jieux - Exclusion NG 3] (Eterna round: R96, puzzle: Exclusion NG 3)	28.1	30.8	29.6	–	–	–
UUAAUACAUGUAGGAUAUGCGUGGCGAAGCUAUGCAGAAGGACAUGAGGAUCACCCAUGUUCUAGCGUCCGCGUACGGAUGCAA [JL Eng1 1.21 mod 9] (Eterna round: R96, puzzle: Exclusion NG 1)	16.4	12	14.8	–	–	–
UCACGGGACUAAGGAUAUACAUGAACUAUUAUUGUAGAAGGUAGAAUGUUAGAUUAUACACUAAACAUGAGGAUCACCCAUGUU [JR_ExcNG1_Sub094] (Eterna round: R96, puzzle: Exclusion NG 1)	–	15.9	–	–	–	–
UGCUGACGAGGAUAUACAUGAGGAUCACCCAUGUAAGAUCAGCGACGAUAGUCGCAAUGUAGAAGGCGUCAGCA [E3/10-A3] (Eterna round: R97, puzzle: Exclusion 3)	228	–	28.5	–	–	–
AGUACUAACACGAGAGUGUUAGUACUAUAAGCUUGUGAAACAUGAGGAUCACCCAUGUCCUCAUAAGCUCGUCUUAU [Mat - Sensor v3 - Turn-off var 2 - D103] (Eterna round: R96, puzzle: Sensor v3, turn-off variant 2)	13.8	452	16.8	–	–	–
GGAUCGAGUGUGAGGAUAUGCUGGUCCUAAGAUCAGCAGAAGGCACAUGAGGAUCACCCAUGUGAAAACGGUCC [Mat - Exclusion 4 - JL Mod - D71] (Eterna round: R96, puzzle: Brourd's mod of Exclusion 4)	183	24.2	29.3	–	–	–
